Assay [1] concerns the target TRBV9 family TCR on human peripheral blood T lymphocytes (human). In words: flow cytometry sorting of human peripheral blood mononuclear cells stained with MA-042-FITC, CD3-eFluor405 and CD45-PC5 at 100 ng/ml; dot plot of MA-042 against CD3.
Assay [2] shares this target.
The target is the same in assay [3]. As to the kind of experiment: FACS sorting with MA-042-FITC, then sequencing of the TCR beta-chain repertoire of the sorted cells.
Assay [4] has as its target human antigen (immobilised on AR2G sensors in the Octet assay of Example 2) (human). As to the kind of experiment: BLI (OctetRed 96), antigen immobilised on AR2G sensors, antibody in solution, 1:1 global model, 30 C.
For assay [5], the target named is TRBV9 family TCR on human peripheral blood T lymphocytes (human). In words: cell-based or functional assay.

Results on 1 molecule are retold here after patent publication US20220056133A1.

B1: antibody MA-042 (antibody, human IgG1, kappa, V domains shown)
VH: QVQLVQSGSELKKPGESVKVSCKASGYTFTDYLVHWVRQAPGQGLEWMGWINTYTGTPTYADDFEGRFVFSLDTSVSTANLQISSLKAEDTAVYFCARSWRRGLRGIGFDYWGQGTLVTVSS
VL: DIQMTQSPYSLSASVGDRVTITCKASKSINKYLAWFQQKPGKPNKLLIYDGSTLQSGVPSRFSGSGSGTDFTLTISSLEPEDFATYYCQQHNEYPPTFGQGTKLEIKR
In turn, B1 yielded an MA-042+ (share of cells in the MA-042+ gate) in assay [1] of 1.9%. Besides, in assay [2], the share of CD3+ cells in the TRBV9+ (MA-042-FITC positive) gate after the cytotoxicity assay with 1 ng/ml MA-042 (right panel) stood at 2% and the share of CD3+ cells in the TRBV9+ (MA-042-FITC positive) gate after the cytotoxicity assay with 1 ug/ml MA-042 (left panel) is 0.3%. For the same molecule, the enrichment of the sorted fraction's TCR beta-chain libraries with TRBV9-encoded sequences in assay [3] turned out to be 93%. Moreover, in assay [4], the equilibrium dissociation constant (Kd) is less than 1 pM, the koff was less than 1e-07 s⁻¹ and the on-rate (kon) is 319000 M⁻¹ s⁻¹. In assay [5], this molecule displayed an EC50 in a cytotoxicity assay (elimination of TRBV9-positive cells among CD3+ lymphocytes, flow cytometry after 72 hours) of 0.1 mg/L and an antibody concentration at which complete elimination of the target population was detected of 500 ng/mL.

The Kd is the equilibrium constant for the complex coming apart. Low values mean a tighter complex, high ones a looser complex. By koff is commonly meant a measure of how fast the partners let go of each other. A high value points to a short-lived complex. What is called kon is a measure of how fast the partners come together.
